# Positions count from the first letter of the chain named.
# T1: canine CD20 (canine, UniProt Q3C2E2 1-297)
# T1 chain: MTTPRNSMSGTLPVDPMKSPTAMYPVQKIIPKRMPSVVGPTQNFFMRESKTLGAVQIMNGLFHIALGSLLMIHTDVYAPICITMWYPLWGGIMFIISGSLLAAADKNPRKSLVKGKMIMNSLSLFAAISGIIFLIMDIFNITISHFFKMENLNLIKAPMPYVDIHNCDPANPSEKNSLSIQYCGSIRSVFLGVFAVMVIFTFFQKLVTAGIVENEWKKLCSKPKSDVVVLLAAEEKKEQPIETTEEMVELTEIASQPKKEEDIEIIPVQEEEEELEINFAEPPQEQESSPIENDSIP
# T2: canine CD20 (UniProt Q3C2E2 1-297)
# T2 chain: T1 chain
# B1: PMX003 mAb (antibody, V domains shown)
# VH: EVQLVESGGDLVKPGGSLRLSCVASGITFSRYHMSWVRQAPGKGLQWVAYINSGGSSTSYPDAVKGRFTISRDNAKNTLYLQMDSLRAEDTALYYCTTFDYWGQGTLVTVSS
# VL: SYVLTQLPSKNVTLKQPAHITCGGDNIGSKSVHWYQQKLGQAPVLIIYYDSRRPTGIPERFSGANSGNTATLTISGALAEDEADYYCQVWDSSANVFGGGTHLTVLG
# B2: PMX067 (antibody, V domains shown)
# VH: B1 VH with V2I, I27F, S53T, S57N, S59N, P61A, D84N, L93V, F99L, Y101S
# VL: SYVLTQLPFKNVTLKQPAHITCGGDNIGSKSVHWYQQKLGQAPVLIIYYDSRRPTGIPERFSGANSGNTATLTISGALAEDEADYYCQVWDSSVNVFGGGTHLTVL
# B3: PMX077 (antibody, V domains shown)
# VH: B1 VH with H33Y, S35N, S57P, S59T, P61A, D84N, L93V, T98S
# VL: B2 VL with F9S, V44I, S51T, R52S, V94A
# B4: PMX073 (antibody, V domains shown)
# VH: B1 VH with I27F, H33Y, S35N, Y50F, N52T, P61G, D84N, L93V, T98S
# VL: B2 VL with F9S, D50A, R52S, V94A
# B5: PMX079 (antibody, V domains shown)
# VH: B1 VH with I27L, Y50F, G55R, S57D, S59T, P61A, D84N, L93V
# VL: B2 VL with F9S, V44A, R52S, V94A
# B6: PMX074 (antibody, V domains shown)
# VH: EVQLVESGGDLVKPGGSLRLSCVASGFTFSRYYMTWVRQAPGKGLQWVAYINSDRRSTTYADAVKGRFTISRDNAKNTLYLQMNSLRAEDTAVYYCTTLEYWGQGTLVTVSS
# VL: B2 VL with F9S, S75N, V94A
# B7: PMX075 (antibody, V domains shown)
# VH: EVQLVESGGDLVKPGGSLRLSCVASGITFSRYHMSWVRQAPGKGLQWVAFINTGRSSTNYADAVAGRFTISRDNAKNTLYLQMNGLTVEDTAVYYCSTLDYWGQGTLVTVSS
# VL: B2 VL with F9S, N11S, V44I, S51N, R52N, Q88H
# B8: PMX080 (antibody, V domains shown)
# VH: EVQLVESGGDLVKPGGSLRLSCVASGLTFSRYYMNWVRQAPGKGLQWVAYIDSGGSPTNYADAVKGRFTISRDNAKNTLYLQMNSLRAEDTAVYYCSSFDYWGQGTLVTVSS
# VL: B2 VL with L4V, F9S, K10N, N11T, V94A
# B9: PMX071 (antibody, V domains shown)
# VH: B8 VH with Q3H, L27I, S30N, A40T, N59T, S97T
# VL: B2 VL with F9S, V44I, S51T, R52S, V94A
# B10: PMX069 (antibody, V domains shown)
# VH: EMQLVESGGALVKPGGSLRLSCVASGFTFRRYHMSWVRQAPGQGLQWVAYIDSDGSPTSYGDSVKGRFTISRDNAKNTLFLQMNSLRVDDTAVYYCTTLDYWGRGTLVTVSS
# VL: B2 VL with L7V, F9S, S29G, V44L, S51T, G76R, V94G, L106I
# B11: PMX081 (antibody, V domains shown)
# VH: EVQLVQSGGDLVKPGGSLRLSCVASGYTFTRYHMSWVRQAPGKGLQWVAFINSDGTGITYGDAVKGRFTISRDNAKNTLYLQMNSLRAEDTAIYYCTTFDSWGQGTLVTVSS
# VL: B2 VL with F9S, V44I, V94G
# B12: PMX078 (antibody, V domains shown)
# VH: B8 VH with Y33H, N35S, V37I, D52S, P57S, D62G, A63S, I70V, S97T, F99L
# VL: B2 VL with F9S, V94D
# B13: PMX066 (antibody, V domains shown)
# VH: AVQLVESGGDLVKPGGSLRLSCVASGITFSRYHMSWVRQAPGKGLQWVAYINSGGSATSYTDAVKGRFSISRDNGKNTLYLQMNSLRVEDSAVYYCTTLDLWGQGTLVTVSS
# VL: B2 VL with F9S, S75N, V89M, V94A
# B14: PMX072 (antibody, V domains shown)
# VH: B7 VH with I27F, G85S, T87R, V88A
# VL: B2 VL with F9S, R52S, V94A
# B15: PMX076 (antibody, V domains shown)
# VH: B8 VH with L27I, N59T, N77K, T78A, S97T
# VL: B2 VL with F9S, R52S, Y86F, V94A
# B16: PMX115 mAb (antibody, V domains shown)
# VH: B10 VH
# VL: B2 VL with L7V, F9S, N11S, S29G, V44L, S51T, G76R, V94G, L106I
# B17: PMX004 mAb (antibody, V domains shown)
# VH: EVQLVESGGELVKPGGSLRVSCVASGITFSRYHMSWVRQAPGKGLQWVAFINTDRSSPKYADSVKGRFTISRDNAKNTLYLQMNSLRAEDTAIYYCTSFDYWGQGTLVTVSS
# VL: B1 VL with R52S
# notes: Fully canine mAb with dog IGGB and dog IGLC5 constant regions; Expressed in CHO cells
# B18: PMX001 mAb (antibody, V domains shown)
# VH: B1 VH with I27F, R31S, S59T, P61A, N77K, D84N, L93V, T97S
# VL: B1 VL with K10R, S51T, A94G
# notes: Fully canine mAb; Expressed in CHO cells
# B19: PMX002 mAb (antibody, V domains shown)
# VH: EVQLVESGGDLVKPGGSLRLSCVASGIIFSNYHMSWVRQVPGKGLQWVAYINSGGSTINYADGVKGRFTISRDNAKNSLYLQMNSLRGEDTAVYYCTTYDSWGQGTLVTVSS
# VL: B1 VL with R52S, A94V
# notes: as for B17
# B20: PMX005 mAb (antibody, V domains shown)
# VH: B1 VH with I27F, S57D, T58S, S59D, P61A, D84N, L93V, T98S, F99L
# VL: B1 VL with R52S, S92R, A94G
# notes: as for B17
# Biological target: T1, canine CD20
# Assay: cell-based or functional assay
ADCC EC50 [nM],CDC EC50 [nM],Binder,ADCC Maximum killing (%),CDC Maximum killing (%)
0.89,25,B1,34,90.4
0.13,11.3,B2,50,97.8
0.13,9.84,B3,42,98.7
0.21,11.1,B4,48,96.3
0.12,16.4,B5,52,96.7
0.12,6.8,B6,51,98.9
0.14,6.02,B7,46,98.9
0.13,21.9,B8,50,96.2
0.15,28.9,B9,41,94.3
0.09,7.6,B10,38,98.2
0.16,10.6,B11,51,98.5
0.22,9.08,B12,40,98.8
0.15,12.1,B13,47,98.5
0.18,19.6,B14,50,91.6
0.14,7.76,B15,49,98.3

# Biological target: T2, canine CD20
# Assay: flow cytometry, cCD20-expressing MDCK II cells; apparent Kd (EC50 of binding)
row,Kd [nM],Binder
1,1.7,B1
2,0.8,B16

# Biological target: T1, canine CD20
# Assay: flow cytometry on cCD20-expressing MDCK II cells, 10 ug/ml antibody, FITC anti-canine IgG (FIG. 3A)
# Procedure: FIG. 3. Binding assessment of anti-canine CD20 mAbs using flow cytometry. PMX001, PMX002, PMX003, PMX004, PMX005, 1 E4-cIGGB, 4E1-7-clGGB (see A) and PMX006, PMX007, PMX008, PMX009, PMX010, PMX011 (see B) and PMX003, PMX066, PMX067, PMX069, PMX070, PMX071, PMX072, PMX073, PMX074, PMX075, PMX076, PMX077, PMX078, PMX079, PMX080, PMX081, 1E4-cIGGB, 4E1-7-clGGB (see C) were applied to cCD20-expressing MDCK II cells at 10 μg/ml. Rituximab-clGGB (grey shadow) was used as the isotype control and presented in each plot. (D) Affinity determination of PMX003, PMX115 and PMX070 mAbs. Binding of 1:2 serially diluted antibodies to cCD20-expressing MDCK II cells was assessed in a binding assay and the mean values of the fluorophore signal was determined. The plot of mean fluorescence intensity (MFI) versus concentration was used to determine EC50 of binding, using non-linear regression, which is the apparent Kd of antibody binding to cell surface expressed canine CD20.
# HEK293 cells or MDCK II cells were stably transfected with a vector encoding the full length of canine CD20 cDNA. Binding of antibodies to these cells were assessed using flow cytometry. […] Cells incubated with anti-canine IgG FITC secondary antibody and without primary anti-canine CD20 antibody, or with isotype control primary antibody, were used as negative controls. The data were acquired on either a Beckman Coulter CytoFLEX or a BD Accuri C6 Plus flow cytometer and analysed using FlowJo software. […] Graphs using mean fluorescence intensity (MFI) values of the FITC channel vs concentration of antibody were plotted in GraphPad Prism (FIG. 3D).
row,binding result,Binder
1,binds,B17
2,binds,B18
3,binds,B19
4,binds,B20
